Measurements as given in paper PMC10149471, “Assessing the applicability of ^19F labeled tryptophan residues to quantify protein dynamics” (Journal of Biomolecular Nmr, 2023).

T1: Dcp2 from S. pombe, regulatory and catalytic domains, residues 1-243, 5-fluorotryptophan labeled (S. pombe, UniProt O13828 1-243, the seven tryptophan residues are replaced with 5-fluorotryptophan)
T1 construct: Dcp2, S. pombe, residues 1-243 (NRD 1-95 and catalytic NUDIX domain 96-243); also used with isoleucine and methionine methyl 13C labeling; also called 5-fluorotryptophan labeled Dcp2-NRD-CTD; source: E. coli BL21(DE3) CodonPlus-RIL with 5-fluoroindole added, purified (Ni-NTA, TEV cleavage, second Ni-NTA, SEC)
T1 sequence (looked up): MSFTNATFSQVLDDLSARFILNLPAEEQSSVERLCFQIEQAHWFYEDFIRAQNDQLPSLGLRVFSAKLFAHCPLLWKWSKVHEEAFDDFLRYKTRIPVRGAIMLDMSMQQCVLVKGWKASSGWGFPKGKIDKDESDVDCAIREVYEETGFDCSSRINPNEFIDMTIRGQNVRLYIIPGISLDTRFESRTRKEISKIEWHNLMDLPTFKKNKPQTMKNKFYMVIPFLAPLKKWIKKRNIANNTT

T2: Dcp2 from S. pombe, regulatory and catalytic domains, residues 1-243 (S. pombe, UniProt O13828 1-243)
T2 construct: Dcp2, S. pombe, residues 1-243 (NRD 1-95 and catalytic NUDIX domain 96-243); also called Dcp2-NRD-CTD; internal ID 223; source: E. coli BL21(DE3) CodonPlus-RIL, purified (Ni-NTA, TEV cleavage, second Ni-NTA, SEC)
T2 sequence (looked up): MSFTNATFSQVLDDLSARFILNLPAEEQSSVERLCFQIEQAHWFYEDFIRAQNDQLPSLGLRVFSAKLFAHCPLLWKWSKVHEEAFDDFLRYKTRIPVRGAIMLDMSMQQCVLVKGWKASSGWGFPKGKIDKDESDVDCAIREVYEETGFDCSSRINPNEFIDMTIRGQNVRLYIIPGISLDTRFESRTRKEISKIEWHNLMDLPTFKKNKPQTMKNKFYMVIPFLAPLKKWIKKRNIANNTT

T3: Dcp1 from S. pombe, residues 1-127, 15N and 5-fluorotryptophan labeled (S. pombe, UniProt Q9P805 1-127, 5-fluorotryptophan at Trp 45 and 107)
T3 construct: Dcp1, S. pombe, UniProt Q9P805, residues 1-127; the tryptophans are replaced with 5-fluorotryptophan; also called 5-fluorotryptophan labeled Dcp1; source: E. coli BL21(DE3) CodonPlus-RIL with 5-fluoroindole added, purified (Ni-NTA, TEV cleavage, second Ni-NTA, SEC)
T3 sequence (looked up): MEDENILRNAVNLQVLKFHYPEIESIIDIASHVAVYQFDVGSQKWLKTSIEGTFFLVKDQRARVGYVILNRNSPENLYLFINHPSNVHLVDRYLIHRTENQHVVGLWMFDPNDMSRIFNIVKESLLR

B1: Dcp1 from S. pombe, residues 1-127 (natural protein, UniProt Q9P805 1-127, looked up)
chain: MEDENILRNAVNLQVLKFHYPEIESIIDIASHVAVYQFDVGSQKWLKTSIEGTFFLVKDQRARVGYVILNRNSPENLYLFINHPSNVHLVDRYLIHRTENQHVVGLWMFDPNDMSRIFNIVKESLLR
notes: Dcp1, S. pombe, UniProt Q9P805, residues 1-127; also called internal ID 48; source: E. coli BL21(DE3) CodonPlus-RIL, purified (Ni-NTA, TEV cleavage, second Ni-NTA, SEC)

Experiments:
Assay in all cases: NMR spectra of a prepared complex; Dcp1 and Dcp2 expressed separately, complex prepared with one partner NMR active; 303 K; 125 mM NaCl, 25 mM HEPES, pH 7.3, 1 mM DTT; 100-500 uM protein
Settings in all cases: both partners purified
[1] = target: T1, Dcp2 from S. pombe, regulatory and …
[2] = target: T2, Dcp2 from S. pombe, regulatory and …
[3] = target: B1
[4] = target: T3, Dcp1 from S. pombe, residues 1-127, 15N …

binding result [1] | binding result [2] | binding result [3] | binding result [4] | Binder
binds | binds | – | – | B1
– | – | binds | binds | Dcp2 from S. pombe, N-terminal regulatory domain, residues 1-95 (domain or fragment, UniProt O13828 1-95, looked up, Dcp2, S. pombe, residues 1-95 (N-terminal regulatory domain); Used unlabeled or 15N labeled, depending on the sample; also called Dcp2 NRD; NRD of Dcp2; source: E. coli BL21(DE3) CodonPlus-RIL, purified (Ni-NTA, TEV cleavage, second Ni-NTA, SEC)) MSFTNATFSQVLDDLSARFILNLPAEEQSSVERLCFQIEQAHWFYEDFIRAQNDQLPSLGLRVFSAKLFAHCPLLWKWSKVHEEAFDDFLRYKTR
– | – | binds | – | Dcp2 from S. pombe, N-terminal regulatory domain, residues 1-95, 5-fluorotryptophan labeled (domain or fragment, UniProt O13828 1-95, looked up, 5-fluorotryptophan at the three tryptophan residues (W43 among them), Dcp2, S. pombe, residues 1-95 (N-terminal regulatory domain); also called 5-fluorotryptophan labeled Dcp2 NRD; source: E. coli BL21(DE3) CodonPlus-RIL with 5-fluoroindole added, purified (Ni-NTA, TEV cleavage, second Ni-NTA, SEC)) MSFTNATFSQVLDDLSARFILNLPAEEQSSVERLCFQIEQAHWFYEDFIRAQNDQLPSLGLRVFSAKLFAHCPLLWKWSKVHEEAFDDFLRYKTR
– | – | binds | – | Dcp2 from S. pombe, residues 1-95, W43A assignment mutant (domain or fragment, UniProt O13828 1-95, looked up, Dcp2, S. pombe, residues 1-95 with W43A; also called Dcp2 NRD W43A; internal ID 1070; source: E. coli BL21(DE3) CodonPlus-RIL, purified (Ni-NTA, TEV cleavage, second Ni-NTA, SEC)) MSFTNATFSQVLDDLSARFILNLPAEEQSSVERLCFQIEQAHAFYEDFIRAQNDQLPSLGLRVFSAKLFAHCPLLWKWSKVHEEAFDDFLRYKTR
